Laboratory results taken from paper doi:10.1101/2022.02.17.480967.

Molecular target: H1.2 2-108 (UniProt P16403 2-108)
Assay: fluorescence polarization

H1.2 2-108, sequence (P16403 2-108): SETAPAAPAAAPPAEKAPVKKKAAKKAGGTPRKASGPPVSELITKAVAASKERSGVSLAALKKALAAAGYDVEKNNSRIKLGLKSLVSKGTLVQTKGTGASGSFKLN

B1: fluorescein-labeled 30-mer DNA (printed strands are 27 nt) (dsDNA)
DNA 1: ATCATTAATATGAATTCGCCACATGCA
DNA 2: TGCATGTGGCGAATTCATATTAATGAT
- binding signal: 50 fold lower affinity than full-length H1.2
